B1: CcmM35, internal carboxysomal protein of Synechococcus elongatus PCC7942 (other, UniProt Q03513-2 1-324, looked up)
chain: MSAYNGQGRLSSEVITQVRSLLNQGYRIGTEHADKRRFRTSSWQPCAPIQSTNERQVLSELENCLSEHEGEYVRLLGIDTNTRSRVFEALIQRPDGSVPESLGSQPVAVASGGGRQSSYASVSGNLSAEVVNKVRNLLAQGYRIGTEHADKRRFRTSSWQSCAPIQSSNERQVLAELENCLSEHEGEYVRLLGIDTASRSRVFEALIQDPQGPVGSAKAAAAPVSSATPSSHSYTSNGSSSSDVAGQVRGLLAQGYRISAEVADKRRFQTSSWQSLPALSGQSEATVLPALESILQEHKGKYVRLIGIDPAARRRVAELLIQKP
notes: domain: CcmM35; CcmM35 lacks the amino-terminal domain; Untagged as expressed in the SeLSM35 tobacco line; also called Se-ccmM35 product
B2: Small subunit (SSU) of Synechococcus elongatus PCC7942 Rubisco (enzyme, UniProt Q31NB2 1-111, looked up)
chain: MSMKTLPKERRFETFSYLPPLSDRQIAAQIEYMIEQGFHPLIEFNEHSNPEEFYWTMWKLPLFDCKSPQQVLDEVRECRSEYGDCYIRVAGFDNIKQCQTVSFIVHRPGRY
notes: also called cyanobacterial SSU; Se-rbcS product

Tests used:
[1] = biological target: T1, Rubisco from the cyanobacterium Synechococcus elongatus PCC7942 (hexadecameric holoenzyme of eight LSU and … (Synechococcus elongatus PCC7942, UniProt Q31NB3 1-472; Q31NB2 1-111); assay: quantitative immunoblots of SeLSM35 leaf homogenates against purified protein standards
T1 construct: also called Se7942 Rubisco; cyanobacterial Rubisco
Source text: SDS page, immunoblot and determination of CcmM35/Rubisco content. The crude leaf homogenates used in the carboxylase activity measurements were separated by SDS-PAGE using 4-20% polyacrylamide gradient gels (ThermoScientific, UK). For each sample, the same amount of protein, as determined by Bradford assay, was loaded onto the gel. After electrophoresis, the resolved proteins were transferred to a nitrocellulose membrane (Hybond-C Extra from GE Healthcare Life Sciences) using a western blot apparatus. The nitrocellulose membranes were immunoblotted using one of four primary polyclonal antibodies raised against: cyanobacterial (SePCC6301) Rubisco; tobaccoRubisco; the small subunit of tobacco Rubisco; and CcmM from Se PCC7942. The primary polyclonal antibody to detect CcmM35 was generated in rabbit with His-tagged CcmM58 protein purified from E. coli (Cambridge Research Biochemicals, UK) and used at a dilution of 1:500 in the immunoblots and from 1:500 to 1:2,000 for immunogold labelling, and was highly specific for CcmM (FIG. 2a). The primary antibodies were visualized by means of a secondary goat anti-rabbit peroxidase-conjugated antibody (Sigma). The absolute and relative content of Synechococcus Rubisco and CcmM35 in SeLSM35 leaves were determined using immunoblots with antibodies against CcmM and cyanobacterial Rubisco. […]

[2] = biological target: T2, Large subunit (LSU) of Synechococcus elongatus PCC7942 Rubisco (Synechococcus elongatus PCC7942, UniProt Q31NB3 1-472); assay: native PAGE with Coomassie stain and immunoblots
T2 construct: also called cyanobacterial LSU; Se LSU

Binder | stoichiometry of CcmM35 per Rubisco holoenzyme [1] | binding result [2]
B1 | ~4.5 CcmM35 per Rubisco holoenzyme | –
B2 | – | binds

From patent publication US20180298401A1 (CORNELL UNIVERSITY, published 2018)
